Assay results from article PMC7815066 (Chem, 2021).

Columns and labels:
[1] = biological target: E. coli bo3 oxidase (E. coli); assay: SEC-MALS
[2] = biological target: E. coli bo3 oxidase (E. coli); assay: mass photometry
[3] = biological target: T1, Streptomyces lividans potassium channel KcsA (Streptomyces lividans), P0A334; assay: mass photometry; settings: remark: other sources report otherwise
T1 chain: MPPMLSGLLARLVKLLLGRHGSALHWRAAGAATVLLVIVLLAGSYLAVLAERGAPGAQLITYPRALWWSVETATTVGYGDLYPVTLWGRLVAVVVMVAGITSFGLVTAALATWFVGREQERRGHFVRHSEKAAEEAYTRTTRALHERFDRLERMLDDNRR

[4] = biological target: T1, Streptomyces lividans potassium channel …; assay: mass photometry; settings: remark: other sources report otherwise
mass photometry = biological target: the molecule itself; assay: mass photometry

E. coli bo3 oxidase (complex)
relative abundance of dimers [1]: 28% | relative abundance of monomers [1]: 72% | stoichiometry N [1]: 2 | relative abundance of dimers [2]: 20% | stoichiometry N [2]: 2

B1: Streptomyces lividans potassium channel KcsA, P0A334 1-160 (natural protein)
chain: T1 chain
stoichiometry N [3]: 4 | stoichiometry N [4]: 4

B2: E. coli outer membrane protein F (natural protein)
chain: AEIYNKDGNKVDLYGKAVGLHYFSKGNGENSYGGNGDMTYARLGFKGETQINSDLTGYGQWEYNFQGNNSEGADAQTGNKTRLAFAGLKYADVGSFDYGRNYGVVYDALGYTDMLPEFGGDTAYSDDFFVGRVGGVATYRNSNFFGLVDGLNFAVQYLGKNERDTARRSNGDGVGGSISYEYEGFGIVGAYGAADRTNLQEAQPLGNGKKAEQWATGLKYDANNIYLAANYGETRNATPITNKFTNTSGFANKTQDVLLVAQYQFDFGLRPSIAYTKSKAKDVEGIGDVDLVNYFEVGATYYFNKNMSTYVDYIINQIDSDNKLGVGSDDTVAVGIVYQF
stoichiometry N (mass photometry): 3
